Sequences and labels used below:
T1: Alder (Aln g 1, MyBiosource, Cat #MBS1041484) (Alder, UniProt P38948 2-160, limits assumed)
T1 construct: Bought reagent
T1 sequence (looked up): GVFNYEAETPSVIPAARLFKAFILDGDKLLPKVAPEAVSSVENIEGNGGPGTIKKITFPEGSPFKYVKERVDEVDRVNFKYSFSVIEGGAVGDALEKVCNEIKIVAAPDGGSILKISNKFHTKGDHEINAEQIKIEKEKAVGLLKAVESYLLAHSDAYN

T2: European Hornbeam (Car b 1 isoform 1A & 1B, MyBiosource, Cat #MBS1200018) (European Hornbeam, UniProt P38949 2-160)
T2 construct: Bought reagent
T2 sequence (looked up): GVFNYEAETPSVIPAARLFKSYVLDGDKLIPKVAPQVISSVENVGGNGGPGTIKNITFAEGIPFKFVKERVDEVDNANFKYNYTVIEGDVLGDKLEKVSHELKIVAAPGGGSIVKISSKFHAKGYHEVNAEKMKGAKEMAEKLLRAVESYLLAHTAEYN

T3: CHO produced recombinant Bet v 1 containing a S85A mutation with a C-terminal myc-myc hexahistidine tag … (Betula verrucosa (birch))
T3 chain: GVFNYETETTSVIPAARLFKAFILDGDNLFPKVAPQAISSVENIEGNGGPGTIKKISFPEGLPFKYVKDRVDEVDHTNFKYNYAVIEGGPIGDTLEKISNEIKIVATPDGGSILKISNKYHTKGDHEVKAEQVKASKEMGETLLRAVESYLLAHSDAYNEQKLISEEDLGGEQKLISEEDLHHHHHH

T4: European Hornbeam (Car b 1 isoform 2, MyBiosource, Cat #MBS1043940) (European Hornbeam, UniProt P38950 2-160, limits assumed)
T4 construct: Bought reagent
T4 sequence (looked up): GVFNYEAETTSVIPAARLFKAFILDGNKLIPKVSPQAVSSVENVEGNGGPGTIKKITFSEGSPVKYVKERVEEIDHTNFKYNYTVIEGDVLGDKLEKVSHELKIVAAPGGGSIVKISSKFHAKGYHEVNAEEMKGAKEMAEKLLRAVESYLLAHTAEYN

T5: Celery (Api g 1, MyBiosource, Cat #MBS1171376) (Celery, UniProt P49372 1-154, limits assumed)
T5 construct: Bought reagent
T5 sequence (looked up): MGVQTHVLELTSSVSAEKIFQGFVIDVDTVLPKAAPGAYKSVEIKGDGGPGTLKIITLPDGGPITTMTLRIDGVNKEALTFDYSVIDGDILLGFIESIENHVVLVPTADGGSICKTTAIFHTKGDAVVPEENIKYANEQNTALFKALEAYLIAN

T6: Apple (Mal d 1, MyBiosource, Cat #MBS1224919) (Apple, UniProt P43211 2-159, limits assumed)
T6 construct: Bought reagent
T6 sequence (looked up): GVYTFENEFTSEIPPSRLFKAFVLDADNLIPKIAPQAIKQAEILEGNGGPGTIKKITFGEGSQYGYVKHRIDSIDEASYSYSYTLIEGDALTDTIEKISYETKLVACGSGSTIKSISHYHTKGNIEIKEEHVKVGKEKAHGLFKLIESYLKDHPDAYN

B1: H4H17033P (antibody, human IgG4, V domains shown)
VH: QVQLVQSGAEVKKPGASVKVSCKASGYTFAAHYMHWVRQAPGQGLEWMGWINTYTGGTNYGQKFQGRVTMTRDTSITTAYMELSRLRSDDTAVYYCARDRRNWNFVFEYWGQGTLVTVSS
VL: DIQMTQSPSSLSASVGDRVTISCRASQNIKNYLNWYQQKPGKAPKLLIYEASNLQSGAPSRFSGSGSGTDFTLTISSLEPEDFATYYCQQSFSIPWTFGQGTKVEIK
notes: Fully human antibody with human IgG4 Fc (H4H prefix)
B2: H4H17028P (antibody, human IgG4, V domains shown)
VH: QVQLVESGGGVVQPGRSLRLSCAASGFTFSRYAIHWVRQAPGKGLEWVAVISYDGDDKYYGDSVKGRFTISRDNSKTMVYLHMNSLRTEDTAVYYCAKDGYSLYGKDYFDYWGQGTLVTVSS
VL: EIVLTQSPGTLPLSPGERATLSCRASQSITNSYLAWYQQKPDQAPRLLIYGASSRATGIPDRFSGSESGTDFTLTISRLEPEDFAVYYCQQYVRSPWTFGQGTKVEIK
notes: as for B1
B3: H4H17045P2 (antibody, human IgG4, V domains shown)
VH: EVQLVESGGGLVQPGVSLRLSCVASGFTFSNYDITWIRQIPGKGLEWVSRISGSGGSTYFADSVKGRFIISRDNSKNTVYMQMNSLRAEDSAVYYCARRDSVLFSMNSWLDPWGQGTLVTVSS
VL: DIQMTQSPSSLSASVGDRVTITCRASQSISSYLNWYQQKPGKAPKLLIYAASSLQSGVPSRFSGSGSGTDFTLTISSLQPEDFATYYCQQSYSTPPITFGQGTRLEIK
notes: as for B1
B4: H4H17038P2 (antibody, human IgG4 S228P, kappa, V domains shown)
VH: EVQLVESGGDLVQPGGSLRLSCAASGFTFSSYEMNWVRQAPGKGLEWVSFISDSSSNIYYADSVKGRFTISRDNAKKSLYLQMTSLRAEDTAVYYCAREAIGSTSFDNWGQGTLVTVSS
VL: EIVMTQSPATLSVSPGERATLSCRASQSVSSSLAWYQQKPGQAPRRLIYSASTRATGIPARFSGSGSGTEFTLTISSLQSEDFAIYYCHQYNNWPLTFGGGTKVEIKR
notes: human IgG4 Fc; also called REGN5714; MAB3
B5: H4H17031P (antibody, human IgG4, V domains shown)
VH: QVQLQQWGAGLLKPSETLSLTCVVYGESFGNYHWNWIRQSPGKRLEWIGEINQNGHTNYNPSLKSRVTISVDTSKIQFSLRLNSVTAADTAVYFCARGHNYVNSYFGLDVWGQGTTVTVSS
VL: EIVMTQSPATLSVSPGERATLSCRTSQSVSISLAWYQRKPGQAPRLLIFGSSTRATGVPARFSGSGSGTEFTLTISSLQSEDFAVYYCQQYNNWPYTFGQGTKLEIK
notes: as for B1

For one assay, the target named is T1, Alder (Aln g 1, MyBiosource, Cat …). The assay can be described thus: SPR, mAb captured via anti-hFc, 25 C. (In SPR one partner is held on a chip, and binding of the other changes the refractive index at the surface.)
Protocol: (§1) Equilibrium dissociation constants (KD) for different related allergens binding to purified anti-Bet v 1 monoclonal antibodies were determined using a real-time surface plasmon resonance biosensor (SPR-Biacore) on a Biacore 4000 instrument. All binding studies were performed in 10 mM HEPES, 150 mM NaCl, 3 mM EDTA, and 0.05% v/v surfactant Tween-20, pH 7.4 (HBS-ET) running buffer at 25° C. […] Binding studies were performed on the following related allergens: Alder (Aln g 1, MyBiosource, Cat #MBS1041484), Apple (Mal d 1, MyBiosource, Cat #MBS1224919), Carrot (Dau c 1.2, MyBiosource, Cat #MBS1212920), Celery (Api g 1, MyBiosource, Cat #MBS1171376), Celery (Api g 2, MyBiosource, Cat #MBS1047880), European Hornbeam (Car b 1 isoform 1A & 1B, MyBiosource, Cat #MBS1200018), European Hornbeam (Car b 1 isoform 2, MyBiosource, Cat #MBS1043940), Hazel (Cor A 1, MyBiosource, Cat #MBS5304600), and White Oak (Que a 1, MyBiosource, Cat #MBS1258822). […] Association (kₐ) and dissociation (kd) rate constants were determined by fitting the real-time binding sensorgrams to a 1:1 binding model with mass transport limitation using Scrubber 2.0c curve-fitting software. Binding dissociation equilibrium constants (KD) and dissociative half-lives (t½) were calculated from the kinetic rate constants as:
As for B1, the “100 nM Analyte Bound (RU)” value was found to be 3 RU and the binding result is “no binding (tested: 100 nM)”.
Regarding B2, the “100 nM Analyte Bound (RU)” value is 16 RU, the Kd was determined as 36.7 nM, the koff worked out at 0.0019 s⁻¹ and the kon came out at 51700 M⁻¹ s⁻¹. Besides, the t½ worked out at 6.1 min.
B3: the “100 nM Analyte Bound (RU)” value was 0 RU and the binding result is on record as “no binding (tested: 100 nM)”.
The corresponding values for B4 are 2 RU and “no binding (tested: 100 nM)”.
As to B5, the “100 nM Analyte Bound (RU)” value is 59 RU, binding was put at a Kd of 45 nM, the koff worked out at 0.00238 s⁻¹ and the kon was found to be 52900 M⁻¹ s⁻¹. This molecule also had a t½ of 4.8 min.

In another assay the target is T2, European Hornbeam (Car b 1 isoform 1A & …). Briefly: SPR, mAb captured via anti-hFc, 25 C.
For B1, the “100 nM Analyte Bound (RU)” value is 0 RU and the binding result was “no binding (tested: 100 nM)”.
For the molecule B2, the “100 nM Analyte Bound (RU)” value turned out to be 159 RU, the Kd was found to be 2.43 nM, the koff amounted to 0.000511 s⁻¹ and the kon was found to be 210000 M⁻¹ s⁻¹. Further, the t½ was 23 min.
In the case of B3, the “100 nM Analyte Bound (RU)” value came out at 5 RU and the binding result is reported as “no binding (tested: 100 nM)”.
Consider B4, for which the “100 nM Analyte Bound (RU)” value stood at 105 RU; the affinity, expressed as Kd, was 41.4 nM; the t½ turned out to be 1.9 min.
Turning to B5, the “100 nM Analyte Bound (RU)” value was 126 RU, the Kd was determined as 13.8 nM, the koff worked out at 0.00111 s⁻¹ and the kon is 80400 M⁻¹ s⁻¹. Also, the t½ was determined as 10 min.

Another assay addresses T3, CHO produced recombinant Bet v 1 …. Briefly: SPR, mAb captured via anti-hFc, 25 C.
Protocol: (§2) Equilibrium dissociation constants (KD) for natural Bet v 1 binding to purified anti-Bet v 1 monoclonal antibodies were determined using a real-time surface plasmon resonance biosensor (SPR-Biacore) on a Biacore 4000 instrument. All binding studies were performed in 10 mM HEPES, 150 mM NaCl, 3 mM EDTA, and 0.05% v/v surfactant Tween-20, pH 7.4 (HBS-ET) running buffer at 25° C. and 37° C. […] Association (kₐ) and dissociation (kd) rate constants were determined by fitting the real-time binding sensorgrams to a 1:1 binding model with mass transport limitation using Scrubber 2.0c curve-fitting software. Binding dissociation equilibrium constants (KD) and dissociative half-lives (t½) were calculated from the kinetic rate constants as:
For B1, the “100 nM natural Bet v 1- MMH Bound (RU)” value worked out at 67 RU, the Kd came out at 0.768 nM, the koff worked out at 0.000415 s⁻¹ and the kon was determined as 540000 M⁻¹ s⁻¹. The t½ stood at 28 min.
The corresponding values for B2 are 71 RU, 0.854 nM, 0.000693 s⁻¹, 811000 M⁻¹ s⁻¹ and 17 min.
The corresponding values for B3 are 60 RU, 6.23 nM, 0.000498 s⁻¹, 80000 M⁻¹ s⁻¹ and 23 min.
Regarding B4, the “100 nM natural Bet v 1- MMH Bound (RU)” value is 63 RU, the Kd turned out to be 9.98 nM and the t½ stood at 1.8 min.
For B5, the “100 nM natural Bet v 1- MMH Bound (RU)” value was 63 RU, the Kd worked out at 5.61 nM, the koff stood at 0.00105 s⁻¹ and the kon was 187000 M⁻¹ s⁻¹. Further, the t½ is 11 min.

In the next assay the target is T4, European Hornbeam (Car b 1 isoform 2, …). The assay can be described thus: SPR, mAb captured via anti-hFc, 25 C.
As for B1, the “100 nM Analyte Bound (RU)” value amounted to 111 RU, the Kd came out at 33.4 nM, the koff came to 0.0447 s⁻¹ and the kon turned out to be 1.34e+06 M⁻¹ s⁻¹. Further, the t½ worked out at 0.3 min.
B2: the “100 nM Analyte Bound (RU)” value was 95 RU, the Kd worked out at 45 nM, the koff was determined as 0.00437 s⁻¹ and the association rate constant (kon) worked out at 97100 M⁻¹ s⁻¹. Moreover, the t½ stood at 2.6 min.
Regarding B3, the “100 nM Analyte Bound (RU)” value amounted to 5 RU and the binding result is listed as “no binding (tested: 100 nM)”.
As to B4, the Kd was determined as 50.5 nM and the t½ worked out at 1.8 min.
For the molecule B5, the “100 nM Analyte Bound (RU)” value was 160 RU, the Kd came out at 13.1 nM, the koff was 0.00517 s⁻¹ and the kon is 395000 M⁻¹ s⁻¹. The t½ amounted to 2.2 min.

A further assay concerns the target T3, CHO produced recombinant Bet v 1 …. The assay can be described thus: SPR, mAb captured via anti-hFc, 37 C.
Protocol: as §2
Take B1: the “100 nM natural Bet v 1-MHH Bound (RU)” value stood at 79 RU, the Kd was determined as 1.34 nM, the koff came to 0.00118 s⁻¹ and the kon was 883000 M⁻¹ s⁻¹. Besides, the t½ was determined as 9.8 min.
The corresponding values for B2 are 77 RU, 2.32 nM, 0.00235 s⁻¹, 1.01e+06 M⁻¹ s⁻¹ and 4.9 min.
Turning to B3, the “100 nM natural Bet v 1-MHH Bound (RU)” value came out at 84 RU, the Kd was determined as 14.3 nM, the koff was 0.00232 s⁻¹ and the kon is 162000 M⁻¹ s⁻¹. The t½ was 5 min.
Turning to B4, the “100 nM natural Bet v 1-MHH Bound (RU)” value is 56 RU, the Kd worked out at 35.6 nM and the t½ came to 0.39 min.
Take B5: the “100 nM natural Bet v 1-MHH Bound (RU)” value amounted to 71 RU, the Kd amounted to 14.6 nM, the koff is 0.00406 s⁻¹ and the kon is 278000 M⁻¹ s⁻¹. For the same molecule, the t½ turned out to be 2.8 min.

For a further assay, the target named is T5, Celery (Api g 1, MyBiosource, Cat …). Briefly: SPR, mAb captured via anti-hFc, 25 C.
Protocol: as §1
Turning to B1, the “100 nM Analyte Bound (RU)” value stood at 39 RU, the Kd came to 167 nM, the koff turned out to be 0.0791 s⁻¹ and the kon was 475000 M⁻¹ s⁻¹. The molecule further displayed a t½ of 0.2 min.
As for B2, the “100 nM Analyte Bound (RU)” value was determined as 1 RU and the binding result is recorded as “no binding (tested: 100 nM)”.
The corresponding values for B3 are 0 RU and “no binding (tested: 100 nM)”.
With B4, the “100 nM Analyte Bound (RU)” value was -1 RU.
With B5, the “100 nM Analyte Bound (RU)” value came to 0 RU and the binding result is on record as “no binding (tested: 100 nM)”.

The target of a further assay is T6, Apple (Mal d 1, MyBiosource, Cat …). Briefly: SPR, mAb captured via anti-hFc, 25 C.
Protocol: as §1
B1: the “100 nM Analyte Bound (RU)” value was 1 RU and the binding result is listed as “no binding (tested: 100 nM)”.
For B2 the same measures were 1 RU and “no binding (tested: 100 nM)”.
Take B3: the “100 nM Analyte Bound (RU)” value is -1 RU.
Same read-out and setting: the figure for B4 is -1 RU.
As to B5, the “100 nM Analyte Bound (RU)” value came out at 0 RU and the binding result is “no binding (tested: 100 nM)”.

A word on the Kd: it is the free concentration of one partner at which half of the binding sites on the other are occupied at equilibrium, for simple one-to-one binding. By koff is commonly meant the first-order rate constant of dissociation. By kon is commonly meant the rate constant with which the complex forms. By t½ is commonly meant how long it takes for the measured level to halve.

The values are drawn from patent publication US20240083986A1 (published 2024).
